Experimental data published in article PMC7987023 (bioRxiv, 2021).

Target: SARS-CoV-2 6P stabilized S trimer (SARS-CoV-2, Wuhan-Hu-1 reference, UniProt P0DTC2, stabilised)
Assay: cryo-EM structure

B1: C051 Fab (Fab, V domains shown)
VH: EVQLVESGGGLIQAGGSLRLSCAASGFGVRNNYMSWVRQAPGKGLEWVSVIYSGGTTYYADSVKGRFTISRDNSKNTVFLQMNSLRAEDTAVYYCAREGDVEGFSDLWSGYSRDRYYFDYWGQGTLVTVSS
VL: QSVLTQPASVSGSPGQSITFSCTGTSSDVGGYNYVSWYQQYPGKAPKLLIYDVTNRPSGVSDRFSGSKSGNTASLTISGLQAEDEADYYCSSFTSSNTRVFGTGTKVTVL
B1: binds.
